Among the data in patent publication US20100047166A1 (published 2010) are Kd values, retold here.

The assay deals with T1, 58P1D12 protein expressed on the cell surface (3T3-58P1D12, MDCK/58P1D12, OVCAR-5/58P1D12, xenograft cells) (human, UniProt Q9H9P2 22-273).
T1 construct: also called cell surface 58P1D12; 58P1D12-3T3
T1 sequence: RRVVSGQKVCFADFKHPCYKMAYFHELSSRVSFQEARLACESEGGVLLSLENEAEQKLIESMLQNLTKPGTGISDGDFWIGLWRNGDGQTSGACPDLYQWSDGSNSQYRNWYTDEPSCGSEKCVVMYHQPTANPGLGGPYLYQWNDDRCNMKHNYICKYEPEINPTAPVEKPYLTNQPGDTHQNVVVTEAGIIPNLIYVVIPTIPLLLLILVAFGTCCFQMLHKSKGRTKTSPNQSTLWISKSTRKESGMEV
Nature of the assay: FACS saturation binding on 3T3-58P1D12 cells, one site binding fit.

B1: 58P1D12 MAb Ha8-4c4.1 (hybridoma ATCC PTA-9404) (antibody, V domains shown)
VH: QVQLQESGPGLVKPSETLSLTCTVSGGSVSSGGYYWSWIRQPPGKGLEWIGYIYYSGGTNYNPSLKSRVTISVDTSKNQFSLKLTSVTAADTAVYYCARESGYCTNVACFPDAFDIWGQGTMVTVSS
VL: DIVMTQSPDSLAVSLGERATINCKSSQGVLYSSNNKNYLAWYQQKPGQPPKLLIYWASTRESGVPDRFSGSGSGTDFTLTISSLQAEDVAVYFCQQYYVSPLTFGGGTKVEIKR
notes: Fully human IgG1 kappa (gamma 1 kappa) from XenoMouse
With B1, the affinity, expressed as Kd, was 3 nM.
